B1: YFP-Parkin: YFP-tagged Parkin E3 ligase expressed from a transfected vector (protein, UniProt O60260 1-465, looked up)
E3 ubiquitin-protein ligase …: MIVFVRFNSSHGFPVEVDSDTSIFQLKEVVAKRQGVPADQLRVIFAGKELRNDWTVQNCDLDQQSIVHIVQRPWRKGQEMNATGGDDPRNAAGGCEREPQSLTRVDLSSSVLPGDSVGLAVILHTDSRKDSPPAGSPAGRSIYNSFYVYCKGPCQRVQPGKLRVQCSTCRQATLTLTQGPSCWDDVLIPNRMSGECQSPHCPGTSAEFFFKCGAHPTSDKETSVALHLIATNSRNITCITCTDVRSPVLVFQCNSRHVICLDCFHLYCVTRLNDRQFVHDPQLGYSLPCVAGCPNSLIKELHHFRILGEEQYNRYQQYGAEECVLQMGGVLCPRPGCGAGLLPEPDQRKVTCEGGNGLGCGFAFCRECKEAYHEGECSAVFEASGTTTQAYRVDERAAEQARWEAASKETIKKTTKPCPRCHVPVEKNGGCMHMKCPQPQCRLEWCWNCGCEWNRVCMGDHWFDV
modifications: YFP fusion
notes: YFP-tagged Parkin E3 ligase expressed from a transfected vector

Tests used:
Type in all cases: cell-based
rat cortical neurons = assay: Endogenous Parkin in heavy membrane pellet, Western blot; conditions: CCCP 5 hours
Method: HeLa cells stably expressing YFP-Parkin using the Flp-In system (Invitrogen) were creating according to the manufacturer's instructions and maintained in 300 μg/ml hygromycin (Sigma-Aldrich). Rat cortical neurons were isolated on embryonic day 18 and grown in neurobasal media supplemented with B-27, L-glutamine, and penicillin/streptomycin. All cell culture materials were obtained from Invitrogen and all chemicals were obtained from Sigma-Aldrich. Chemicals were prepared from DMSO stock solutions, except paraquat, N-acetyl-cysteine, and 3-methyladenine, which were added fresh to media. Mfn1−/−, Mfn2−/− and Mfn1−/−, Mfn2−/− double knockout MEFs were generously donated by D. C. […]
Image contrast and brightness were adjusted in Photoshop (Adobe). Colocalization was assessed with line scans using MetaMorph (MDS Analytical Technologies). For analysis of mitochondrial membrane potential in cells, mitochondrial voxels in each image (the cytochrome c channel threshold was ≧400 au) were segregated into Parkin-positive (the YFP-Parkin channel threshold was ≧1,100 au) or Parkin-negative subsets, and MitoTracker intensity for each voxel was measured using Volocity software (Improvision). For each cell, the mean MitoTracker intensity per voxel was calculated for the Parkin-positive and Parkin-negative subsets. […]

HeLa cells [1] = assay: Parkin in mitochondria-rich membrane fraction, immunoblot; conditions: HeLa, CCCP 1 hr, Western blotting
Source text: (§1) For PINK1 experiments, cells were fractionated using the Mitochondria Isolation Kit (Pierce), according to manufacturer's specifications with slight modifications. To isolate integral membrane proteins, membrane fractions obtained as above were carbonate extracted with 0.1M Na2CO3 fresh cold buffer and membranes were pelleted, as described in the supplemental methods. For Parkin experiments, cells were fractionated as described previously, with minor modifications described in the supplemental methods (Narendra (2008) J Cell Biol 183: 795-803). The following primary antibodies were used: anti-Parkin (PRK8) monoclonal (Santa Cruz), anti-Tom20 polyclonal (Santa Cruz), anti-cytochrome c monoclonal (BD Biosciences), anti-PINK1 polyclonal (Novus Biologicals), anti-VDAC monoclonal (Calbiochem), anti-GAPDH polyclonal (Sigma-Aldrich), anti-Tubulin monoclonal (Sigma-Aldrich), anti-V5 monoclonal (Invitrogen), anti-GFP polyclonal (Invitrogen).
as §1, with “with slight modifications described in the supplemental methods. To isolate” for “with slight modifications. To isolate”, “minor modifications detailed in the” for “minor modifications described in the”, “supplemental methods (Narendra (2008) J Cell Biol 183: 795-803). The protease protection assay was performed as described previously (Chen (2005) J Biol Chem 280: 26185-26192). Cells were fixed and immunostained as described previously (Narendra (2008)” for “supplemental methods (Narendra (2008)”, “anti-GFP polyclonal (Invitrogen), anti-TIM23 monoclonal (BD Biosciences), and anti-Hsp60 monoclonal (Stressgen).” for “anti-GFP polyclonal (Invitrogen).”

HeLa cells [2] = assay: Survival in glucose or galactose media after CCCP
Source text: To further confirm that cells had lost their mitochondria, their growth in glucose media or galactose media, which lacked glucose, was examined. […] In contrast, the majority of control cells, which had been treated with CCCP but lacked Parkin, retained their mitochondria and could survive in both glucose and galactose media for at least 4 days (FIG. 4H).
Cultured cells seeded in borosilicate chamber slides (Thermo Fisher Scientific) were transfected or cotransfected with YFP-Parkin, ECFP-Parkin, mCherry-Parkin, DsRed-Mito (Clontech Laboratories, Inc.), pcDNA3.1 (Invitrogen), vMIA, and/or Drp1K38A constructs using Fugene 6 (Roche). Parkin-myc was a gift from M. Cookson (National Institutes of Health, Bethesda, Md.). Cells were fixed 12-24 hours after transfection with 4% paraformaldehyde in PBS. Cells were stained with following primary antibodies: mouse monoclonal cytochrome c (BD), rabbit polyclonal Tom20 (Santa Cruz Biotechnology, Inc.), mouse monoclonal Parkin PRK8 (Santa Cruz Biotechnology, Inc.), rabbit polyclonal PMP70 (Invitrogen), and/or mouse monoclonal TRAP1 (Abcam); and with the following secondary antibodies: mouse and/or rabbit Alexa 488, 594, and 633 (Invitrogen). For assessment of mitochondrial membrane potential, cells were pulsed with 50 nM Mito-Tracker red (Invitrogen) for 15 min, washed, and incubated for an additional 10 minutes before fixation or imaging. […]

| Molecule | endogenous Parkin level in the membrane pellet (rat cortical neurons) | translocation of YFP-Parkin variant to mitochondria-rich membrane fraction (HeLa cells [1]) | cells without detectable mitochondria able to survive (HeLa cells [2]; 4 days in galactose media after 10 μM CCCP 72 hours) [%] | cells without detectable mitochondria able to survive (HeLa cells [2]; 4 days in glucose media after 10 μM CCCP 72 hours) [%] |
| --- | --- | --- | --- | --- |
| N#CC(C#N)=NNc1cccc(Cl)c1 [CCCP, carbonyl cyanide m-chlorophenylhydrazone] | increased levels in the membrane pellet | – | – | – |
| B1 | – | increase | 0 | 72.8 |

Source: patent publication US20120277286A1, “COMPOSITIONS AND METHODS FOR THE TREATMENT OR PREVENTION OF MITOCHONDRIAL DISEASES” (The Government of the USA, as represented by the Secretary, …, priority 2009, published 2012)
